In paper PMC3427372, “Proteomic Analysis Reveals New Cardiac-Specific Dystrophin-Associated Proteins” (PLoS ONE, 2012):
Blank lines part the entries; values can stand above or below the binder they belong to.

Target: T1, Dystrophin (mouse (endogenous in cardiac and …, UniProt P11531 1-3678))
T1 construct: dystrophin, mouse, the large (427 kDa) full-length form of muscle cells; also called full-length dystrophin; full length dystrophin; source: endogenous, mouse cardiac ventricle and skeletal muscle (quadriceps) lysate
Experiment: co-IP; DYS-IP (MANDYS1 cross-linked to protein G magnetic beads) from wild type mouse cardiac muscle lysate, 3 hr at 4°C, Western blot; controls IgG-IP and mdx
Settings: partners not purified

T1 sequence (P11531 whole entry): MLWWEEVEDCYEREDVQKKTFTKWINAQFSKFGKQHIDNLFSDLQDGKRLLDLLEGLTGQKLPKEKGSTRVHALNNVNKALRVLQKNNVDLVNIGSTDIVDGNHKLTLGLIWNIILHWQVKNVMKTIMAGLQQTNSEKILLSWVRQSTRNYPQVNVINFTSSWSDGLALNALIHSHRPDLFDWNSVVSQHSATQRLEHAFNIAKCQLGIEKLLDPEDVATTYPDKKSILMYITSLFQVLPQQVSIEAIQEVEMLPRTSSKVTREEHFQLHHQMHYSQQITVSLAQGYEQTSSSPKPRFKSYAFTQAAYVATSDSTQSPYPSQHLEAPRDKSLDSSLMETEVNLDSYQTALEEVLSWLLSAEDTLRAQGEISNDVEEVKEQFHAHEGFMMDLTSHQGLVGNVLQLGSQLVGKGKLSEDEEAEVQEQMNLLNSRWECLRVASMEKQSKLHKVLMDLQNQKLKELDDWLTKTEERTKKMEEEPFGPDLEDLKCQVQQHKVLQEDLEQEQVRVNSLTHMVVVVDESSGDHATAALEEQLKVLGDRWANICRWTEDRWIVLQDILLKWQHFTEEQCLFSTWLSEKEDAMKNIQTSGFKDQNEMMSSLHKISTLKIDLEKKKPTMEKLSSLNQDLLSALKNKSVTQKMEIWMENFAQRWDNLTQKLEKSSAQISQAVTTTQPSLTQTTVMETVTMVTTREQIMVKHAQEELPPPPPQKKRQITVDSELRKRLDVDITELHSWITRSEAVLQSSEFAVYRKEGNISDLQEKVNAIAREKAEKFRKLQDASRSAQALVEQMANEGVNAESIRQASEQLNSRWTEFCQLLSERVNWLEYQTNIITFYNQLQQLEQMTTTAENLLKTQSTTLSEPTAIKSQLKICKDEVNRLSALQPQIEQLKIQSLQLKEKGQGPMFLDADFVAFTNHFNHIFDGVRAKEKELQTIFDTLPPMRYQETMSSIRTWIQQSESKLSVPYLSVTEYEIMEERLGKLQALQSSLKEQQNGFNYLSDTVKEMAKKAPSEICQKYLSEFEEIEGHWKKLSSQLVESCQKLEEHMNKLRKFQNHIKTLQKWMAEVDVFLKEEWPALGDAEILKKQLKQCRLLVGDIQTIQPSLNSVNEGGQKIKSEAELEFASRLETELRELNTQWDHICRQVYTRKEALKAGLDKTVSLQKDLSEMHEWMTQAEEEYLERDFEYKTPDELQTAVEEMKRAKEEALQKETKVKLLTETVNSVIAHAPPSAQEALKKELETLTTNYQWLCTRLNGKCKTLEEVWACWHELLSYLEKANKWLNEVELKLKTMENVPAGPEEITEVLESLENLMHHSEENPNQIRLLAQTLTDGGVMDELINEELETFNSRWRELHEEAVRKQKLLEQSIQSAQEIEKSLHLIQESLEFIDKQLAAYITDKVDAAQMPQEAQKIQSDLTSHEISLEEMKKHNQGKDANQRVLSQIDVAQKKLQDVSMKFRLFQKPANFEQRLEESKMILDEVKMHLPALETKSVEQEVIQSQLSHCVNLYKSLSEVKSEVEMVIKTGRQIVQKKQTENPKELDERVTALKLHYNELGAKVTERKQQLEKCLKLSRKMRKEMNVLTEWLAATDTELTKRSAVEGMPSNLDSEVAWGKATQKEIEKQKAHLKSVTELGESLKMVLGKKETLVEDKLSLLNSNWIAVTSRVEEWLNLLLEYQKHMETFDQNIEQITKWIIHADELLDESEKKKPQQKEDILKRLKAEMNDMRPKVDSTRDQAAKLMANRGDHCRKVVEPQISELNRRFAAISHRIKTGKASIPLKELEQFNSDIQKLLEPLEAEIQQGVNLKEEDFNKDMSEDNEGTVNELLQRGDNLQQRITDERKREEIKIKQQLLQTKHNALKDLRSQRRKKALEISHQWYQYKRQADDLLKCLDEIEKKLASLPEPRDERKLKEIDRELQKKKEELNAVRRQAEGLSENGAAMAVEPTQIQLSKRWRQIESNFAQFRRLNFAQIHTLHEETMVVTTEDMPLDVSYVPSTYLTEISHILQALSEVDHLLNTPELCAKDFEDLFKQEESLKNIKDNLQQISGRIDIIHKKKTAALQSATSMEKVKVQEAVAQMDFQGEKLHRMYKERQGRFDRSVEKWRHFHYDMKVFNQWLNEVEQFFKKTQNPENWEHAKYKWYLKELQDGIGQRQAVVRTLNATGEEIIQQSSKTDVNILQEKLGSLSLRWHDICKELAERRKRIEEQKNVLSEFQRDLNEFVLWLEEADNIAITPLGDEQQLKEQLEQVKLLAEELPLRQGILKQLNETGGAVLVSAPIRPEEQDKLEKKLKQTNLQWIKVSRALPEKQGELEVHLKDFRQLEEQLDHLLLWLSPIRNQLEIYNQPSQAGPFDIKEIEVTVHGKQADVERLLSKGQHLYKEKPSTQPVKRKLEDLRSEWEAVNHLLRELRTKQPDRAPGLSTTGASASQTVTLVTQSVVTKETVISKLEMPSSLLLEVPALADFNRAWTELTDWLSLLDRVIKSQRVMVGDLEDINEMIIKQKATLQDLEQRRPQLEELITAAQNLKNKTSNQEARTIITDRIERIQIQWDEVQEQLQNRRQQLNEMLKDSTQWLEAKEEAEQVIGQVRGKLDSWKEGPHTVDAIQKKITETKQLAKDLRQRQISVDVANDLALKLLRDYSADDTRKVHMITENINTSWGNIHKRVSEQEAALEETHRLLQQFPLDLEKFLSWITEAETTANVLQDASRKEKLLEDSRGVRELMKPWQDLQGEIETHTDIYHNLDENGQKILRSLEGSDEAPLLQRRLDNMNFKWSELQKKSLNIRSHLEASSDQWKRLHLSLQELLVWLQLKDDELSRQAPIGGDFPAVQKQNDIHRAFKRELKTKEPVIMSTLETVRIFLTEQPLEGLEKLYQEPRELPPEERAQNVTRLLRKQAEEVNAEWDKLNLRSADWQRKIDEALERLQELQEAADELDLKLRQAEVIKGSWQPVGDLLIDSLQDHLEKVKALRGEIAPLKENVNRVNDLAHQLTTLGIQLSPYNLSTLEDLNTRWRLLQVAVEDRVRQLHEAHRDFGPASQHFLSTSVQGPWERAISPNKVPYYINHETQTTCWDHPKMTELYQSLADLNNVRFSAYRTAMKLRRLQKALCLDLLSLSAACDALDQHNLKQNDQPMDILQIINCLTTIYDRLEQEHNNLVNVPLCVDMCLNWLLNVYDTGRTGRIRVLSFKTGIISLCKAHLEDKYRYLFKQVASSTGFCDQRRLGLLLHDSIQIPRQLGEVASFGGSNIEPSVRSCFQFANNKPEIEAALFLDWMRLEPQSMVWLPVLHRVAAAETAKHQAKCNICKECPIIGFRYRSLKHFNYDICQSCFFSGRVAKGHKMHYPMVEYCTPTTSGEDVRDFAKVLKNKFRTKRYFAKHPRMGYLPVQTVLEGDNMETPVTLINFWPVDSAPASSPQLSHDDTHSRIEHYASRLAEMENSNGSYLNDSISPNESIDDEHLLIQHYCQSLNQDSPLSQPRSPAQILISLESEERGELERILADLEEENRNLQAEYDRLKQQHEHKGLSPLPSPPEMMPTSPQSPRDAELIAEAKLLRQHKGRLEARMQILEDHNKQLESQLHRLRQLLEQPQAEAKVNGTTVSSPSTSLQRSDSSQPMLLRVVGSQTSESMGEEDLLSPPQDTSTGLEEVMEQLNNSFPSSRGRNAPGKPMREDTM

fold less associated with dystrophin in cardiac than in skeletal muscle DYS-IPs: 4 fold
B1: β1-Syntrophin (natural protein, UniProt Q99L88 1-537, looked up)
chain: MAVAAAAVAAPAGGGGARAQRSGLLEVLVRDRWHKVLVNLSEDALVLSCEEGAAAYNGIGAATNGSFCRGSGTGHPVPGVAQAPDSPAGVRTAFTDLPEQVPESISNQKRGVKVLKQELGGLGISIKGGKENKMPILISKIFKGLAADQTQALYVGDAILSVNGADLRDATHDEAVQALKRAGKEVLLEVKYMREATPYVKKGSPVSEIGWETPPPESPRLGGGSAEPLSSQSFSFHRDRKSIPLKMCYVTRNMTLADPENRQLEIHSPDAKHTVILRSKDSATAQAWFSAIHSNAGDLLTRVVADIREQLGKTGIAGSREIRHLGWLAEKVPGESEKQWKPALVVLTEKDLLIYDSMPRRKEAWFSPVHSYPLLATRLVHSGPGKGSPQAGMDLSFATRTGTKQGIETHLFRAEISRDLSHWTRSIVQGCHNSAELTAEITTACTYRNQECRLTIHYDNGFSISTEPQDGAFPKTIIQSPYEKLKMSSDDGIRMLYLDFGGKEGEIQLDLHSCPKPIVFIIHSFLSAKITRLGLVA
notes: β1-syntrophin, mouse; source: endogenous, mouse cardiac ventricle and skeletal muscle (quadriceps) lysate

fold less associated with dystrophin in cardiac than in skeletal muscle DYS-IPs: ~5 fold
B2: α1-dystrobrevin (natural protein, UniProt Q9D2N4 1-746, looked up)
chain: MIEDSGKRGNTMAERRQLFAEMRAQDLDRIRLSTYRTACKLRFVQKKCNLHLVDIWNVIEALRENALNNLDPNIELNVARLEAVLSTIFYQLNKRMPTTHQIHVEQSISLLLNFLLAAFDPEGHGKISVFAVKMALATLCGGKIMDKLRYIFSMISDSSGVMVYGRYDQFLREVLKLPTAVFEGPSFGYTEQSARSCFSQQKKVTLNGFLDTLMSDPPPQCLVWLPLLHRLANVENVFHPVECSYCHSESMMGFRYRCQQCHNYQLCQDCFWRGHAGGSHSNQHQMKEYTSWKSPAKKLTNALSKSLSCASSREPLHPMFPDQPEKPLNLAHIVPPRPVTSMNDTLFSHSVPSSGSPFITRSSPPKDSEVEQNKMLARAAPAFLKGRGIQYSLNVADRLADEHVLIGLYVNMLRNDPPCMLESSNRLDEEHRLIARYAARLAAESSSSQPTQQRSAPDISFTIDANKQQRQLIAELENKNREILQEIQRLRVEHEQASQPTPEKAQQNPTLLAELRLLRQRKDELEQRMSALQESRRELMVQLEGLMKLLKEEELKQGTQGASSPRSSPSHTISRPIPMPIRSASACPTPTHTPQDSLTGVGGDVQEAFAQSSRRNLRSDLLVAADSITNTMSSLVKELNSEVASETESTVDSEFSRPQFEDLAPSPTSEKAFLAQIHSRKPGYIHGGAASTTHGDMVPEDGDPYTQPEDGNYENESVRQLENELQLEEYLKQKLQDEAYQVSLQG
notes: α-dystrobrevin splice variant α1, mouse; told apart on blots by molecular weight with a pan α-dystrobrevin antibody; also called DTNA1; source: endogenous, mouse cardiac ventricle and skeletal muscle (quadriceps) lysate
